We go through 8 molecules from article PMC7154858, “Transcriptional and Biochemical Characterization of Cytosolic Pyruvate Kinases in Arabidopsis thaliana” (Plants, 2020).

For orientation: Km means the substrate concentration at which the rate is half of its maximum. Usually kcat stands for the number of substrate molecules converted per active site and unit of time at saturation.

Series [1] has as its target T1, cytosolic pyruvate kinase 4 (cPK4, At2g36580) (Arabidopsis thaliana) (UniProt Q9SJQ0).
T1 sequence: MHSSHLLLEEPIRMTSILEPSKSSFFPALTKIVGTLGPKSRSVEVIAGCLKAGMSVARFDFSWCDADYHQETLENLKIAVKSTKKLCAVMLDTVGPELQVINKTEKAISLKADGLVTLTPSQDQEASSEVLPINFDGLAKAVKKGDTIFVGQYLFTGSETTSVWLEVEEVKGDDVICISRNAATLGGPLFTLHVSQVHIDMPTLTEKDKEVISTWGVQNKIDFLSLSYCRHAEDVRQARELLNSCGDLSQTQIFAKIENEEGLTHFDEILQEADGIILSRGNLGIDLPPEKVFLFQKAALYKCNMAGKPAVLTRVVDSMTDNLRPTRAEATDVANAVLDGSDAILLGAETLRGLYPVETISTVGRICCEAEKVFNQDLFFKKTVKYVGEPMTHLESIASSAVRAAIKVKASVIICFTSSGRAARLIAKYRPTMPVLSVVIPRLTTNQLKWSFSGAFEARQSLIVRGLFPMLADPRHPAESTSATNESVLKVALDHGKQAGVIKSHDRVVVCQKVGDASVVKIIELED

Series [2] addresses T2, cytosolic pyruvate kinase 2 (cPK2, At5g56350) (Arabidopsis thaliana) (UniProt Q9FM97).
T2 sequence: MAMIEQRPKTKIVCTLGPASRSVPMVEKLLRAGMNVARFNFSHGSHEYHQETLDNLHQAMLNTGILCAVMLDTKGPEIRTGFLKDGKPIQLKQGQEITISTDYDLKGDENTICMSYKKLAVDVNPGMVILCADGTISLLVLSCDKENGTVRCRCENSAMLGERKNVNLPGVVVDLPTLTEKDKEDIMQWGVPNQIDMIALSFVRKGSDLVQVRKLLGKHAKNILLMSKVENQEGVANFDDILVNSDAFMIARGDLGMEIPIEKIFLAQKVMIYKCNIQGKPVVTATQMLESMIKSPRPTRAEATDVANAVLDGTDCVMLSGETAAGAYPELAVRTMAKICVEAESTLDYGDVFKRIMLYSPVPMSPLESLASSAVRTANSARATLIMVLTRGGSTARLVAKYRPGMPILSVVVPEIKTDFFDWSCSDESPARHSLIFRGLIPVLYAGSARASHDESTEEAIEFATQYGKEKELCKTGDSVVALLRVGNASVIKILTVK

Substrate in series [3]: Nc1ncnc2c1ncn2[C@@H]1O[C@H](COP(=O)(O)OP(=O)(O)O)[C@@H](O)[C@H]1O
Kind of series: purified protein. The format is biochemical, Arabidopsis thaliana. As to conditions: co-substrate PEP, 10 mM MgCl2, 50 mM KCl, 5% PEG 200, pH 7.5, 25 °C.

Substrate in series [4]: C=C(OP(=O)(O)O)C(=O)O
The series can be described thus: purified protein. The format is biochemical, Arabidopsis thaliana. As to conditions: co-substrate ADP, 10 mM MgCl2, 50 mM KCl, 5% PEG 200, pH 7.5, 25 °C.

In the case of “cytosolic pyruvate kinase 3 (cPK3) (from UniProt Q9FFP6 1-510) (enzyme)”, in series [1], the specific pyruvate kinase activity (LDH-coupled assay, substrate saturating conditions) of a mixture of equal ratios of cPK4 and cPK3, compared to the single enzymes is 20 % increase. Further, in series [2], the specific pyruvate kinase activity (LDH-coupled assay, substrate saturating conditions) of a mixture of equal ratios of cPK2 and cPK3, compared to the single enzymes turned out to be 20 % increase.

B1: cytosolic pyruvate kinase 5 (cPK5, At3g52990) (enzyme)
chain: MHSSHLLLEEPIRMASILEPSKSSFFPALTKIVGTLGPKSRSVEALSGCLKAGMSVARFDFSWGDADYHQETLDNLKVAVRSTKKLCAVMLDTVGPELQVINKSEKAITLKADGLVTLTPNQDQEASSEVLPINFNGLAKAVKKGDTIFVGQYLFTGSETTSVWLEVDEVKGDDVICLSRNAATLAGSLFTLHSSQVHIDLPTLTEKDKEVISTWGVQNKIDFLSLSYCRHAEDVRQTREMLKKLGDLSQTQIFAKIENVEGLTHFDEILQEADGIILSRGNLGIDLPPEKVFLFQKAALYKCNMAGKPAVLTRVVDSMTDNLRPTRAEATDVANAVLDGSDAILLGAETLRGLYPVETISTVGRICAEAEKVFNQDLYFKKTVKYVGEPMTHLESIASSAVRAAIKVKASVIICFTSSGRAARLIAKYRPTMPVISVVIPRVKTNQLKWSFSGAFEARQSLIVRGLFPMLADPRHPAESTSATNESVLKVALDHGKHAGVIKSHDRVVVCQKVGDASVVKIIELED
As for B1, the specific pyruvate kinase activity (LDH-coupled assay, substrate saturating conditions) of a batch with equal ratios of cPK4 and cPK5, compared to cPK4 alone in series [1] worked out at 180 % increase.

B2: cPK5 (Arabidopsis thaliana) (protein)
chain: MHSSHLLLEEPIRMASILEPSKSSFFPALTKIVGTLGPKSRSVEALSGCLKAGMSVARFDFSWGDADYHQETLDNLKVAVRSTKKLCAVMLDTVGPELQVINKSEKAITLKADGLVTLTPNQDQEASSEVLPINFNGLAKAVKKGDTIFVGQYLFTGSETTSVWLEVDEVKGDDVICLSRNAATLAGSLFTLHSSQVHIDLPTLTEKDKEVISTWGVQNKIDFLSLSYCRHAEDVRQTREMLKKLGDLSQTQIFAKIENVEGLTHFDEILQEADGIILSRGNLGIDLPPEKVFLFQKAALYKCNMAGKPAVLTRVVDSMTDNLRPTRAEATDVANAVLDGSDAILLGAETLRGLYPVETISTVGRICAEAEKVFNQDLYFKKTVKYVGEPMTHLESIASSAVRAAIKVKASVIICFTSSGRAARLIAKYRPTMPVISVVIPRVKTNQLKWSFSGAFEARQSLIVRGLFPMLADPRHPAESTSATNESVLKVALDHGKHAGVIKSHDRVVVCQKVGDASVVKIIELED
notes: full-length cDNA in pET16b, N-terminal His tag (6x in Results, 5x in Methods), E. coli BLR21, Ni-NTA; primer begins MHSSHL
Regarding B2, the figures for the Km in “purified protein [3]” and in the series “purified protein [4]” were 340 µM and 50 µM, respectively. Further, the kcat in “purified protein [3]” and in “purified protein [4]” was 6.68 s⁻¹ throughout.

B3: cytosolic pyruvate kinase 1 (cPK1, At5g08570) (enzyme)
chain: MSNIDIEGILKELPNDGRIPKTKIVCTLGPASRTVSMIEKLLKAGMNVARFNFSHGSHEYHQETLDNLRSAMHNTGILAAVMLDTKGPEIRTGFLKDGNPIQLKEGQEITITTDYDIQGDESTISMSYKKLPLDVKPGNTILCADGSISLAVLSCDPESGTVRCRCENSAMLGERKNVNLPGVVVDLPTLTDKDIEDILGWGVPNSIDMIALSFVRKGSDLVNVRKVLGSHAKSIMLMSKVENQEGVINFDEILRETDAFMVARGDLGMEIPIEKIFLAQKLMIYKCNLAGKPVVTATQMLESMIKSPRPTRAEATDVANAVLDGTDCVMLSGESAAGAYPEIAVKVMAKICIEAESSLDYNTIFKEMIRATPLPMSPLESLASSAVRTANKARAKLIIVLTRGGSTANLVAKYRPAVPILSVVVPVMTTDSFDWSCSDESPARHSLIYRGLIPMLAEGSAKATDSEATEVIIEAALKSATQRGLCNRGDAIVALHRIGAASVIKICVVK
For the molecule B3, the specific pyruvate kinase activity (LDH-coupled assay, substrate saturating conditions) of a mixture of equal ratios of cPK1 and cPK4, normalised to cPK4 alone in series [1] was 75 % increase. The specific pyruvate kinase activity (LDH-coupled assay, substrate saturating conditions) of a mixture of equal ratios of cPK1 and cPK2, compared to cPK2 alone in series [2] is 70 % increase.

B4: cPK1 (Arabidopsis thaliana) (protein)
chain: MSNIDIEGILKELPNDGRIPKTKIVCTLGPASRTVSMIEKLLKAGMNVARFNFSHGSHEYHQETLDNLRSAMHNTGILAAVMLDTKGPEIRTGFLKDGNPIQLKEGQEITITTDYDIQGDESTISMSYKKLPLDVKPGNTILCADGSISLAVLSCDPESGTVRCRCENSAMLGERKNVNLPGVVVDLPTLTDKDIEDILGWGVPNSIDMIALSFVRKGSDLVNVRKVLGSHAKSIMLMSKVENQEGVINFDEILRETDAFMVARGDLGMEIPIEKIFLAQKLMIYKCNLAGKPVVTATQMLESMIKSPRPTRAEATDVANAVLDGTDCVMLSGESAAGAYPEIAVKVMAKICIEAESSLDYNTIFKEMIRATPLPMSPLESLASSAVRTANKARAKLIIVLTRGGSTANLVAKYRPAVPILSVVVPVMTTDSFDWSCSDESPARHSLIYRGLIPMLAEGSAKATDSEATEVIIEAALKSATQRGLCNRGDAIVALHRIGAASVIKICVVK
notes: full-length cDNA in pET16b, N-terminal His tag (6x in Results, 5x in Methods), E. coli BLR21, Ni-NTA; primer begins MSNIDIEG
In the case of B4, the Km came out at 150 µM in the series “purified protein [3]” and 60 µM in “purified protein [4]”. In addition, the kcat in the series “purified protein [3]” and in the series “purified protein [4]” was 1.53 s⁻¹ each time.

B5: cPK3 (Arabidopsis thaliana) (protein)
chain: MSNIDIEGILKELPNDGRTPKTKIVCTLGPASRSVTMIEKLLKAGMNVARFNFSHGSHEYHQETLDNLRTAMQNTGILAAVMLDTKGPEIRTGFLKDGNPIQLKEGQEITITTDYDIKGDEKTISMSYKKLPVDVKPGNTILCADGSISLAVVSCDPNAGTVICRCENTAMLGERKNVNLPGVVVDLPTLTDKDVEDILKWGVPNNIDMIALSFVRKGSDLVNVRKVLGSHSKSIMLMSKVENQEGVLNFDEILRETDAFMVARGDLGMEIPIEKIFLAQKMMIYKCNLAGKPVVTATQMLESMIKSPRPTRAEATDVANAVLDGTDCVMLSGESAAGAYPEIAVKTMAKICIEAESSLDYNTIFKEMIRATPLPMSTLESLASSAVRTANKAKAKLIIVLTRGGTTAKLVAKYRPAVPILSVVVPVFTSDTFNWSCSDESPARHSLIYRGLIPVLGEGSAKATDSESTEEIIESALKSATEKGLCNHGDAVVALHRIGAASVIKICVVK
notes: printed locus At5g56350 duplicates cPK2 (apparent misprint); primer begins MSNIDIE, unlike cPK2; full-length cDNA in pET16b, N-terminal His tag (6x/5x), E. coli BLR21, Ni-NTA
B5: in the series “purified protein [3]”, the Km turned out to be 140 µM and the kcat was 2.4 s⁻¹. Also, in “purified protein [4]”, the Michaelis-Menten constant (Km) was found to be 170 µM and the kcat is 2.4 s⁻¹.

B6: cPK4 (Arabidopsis thaliana) (protein)
chain: MHSSHLLLEEPIRMTSILEPSKSSFFPALTKIVGTLGPKSRSVEVIAGCLKAGMSVARFDFSWCDADYHQETLENLKIAVKSTKKLCAVMLDTVGPELQVINKTEKAISLKADGLVTLTPSQDQEASSEVLPINFDGLAKAVKKGDTIFVGQYLFTGSETTSVWLEVEEVKGDDVICISRNAATLGGPLFTLHVSQVHIDMPTLTEKDKEVISTWGVQNKIDFLSLSYCRHAEDVRQARELLNSCGDLSQTQIFAKIENEEGLTHFDEILQEADGIILSRGNLGIDLPPEKVFLFQKAALYKCNMAGKPAVLTRVVDSMTDNLRPTRAEATDVANAVLDGSDAILLGAETLRGLYPVETISTVGRICCEAEKVFNQDLFFKKTVKYVGEPMTHLESIASSAVRAAIKVKASVIICFTSSGRAARLIAKYRPTMPVLSVVIPRLTTNQLKWSFSGAFEARQSLIVRGLFPMLADPRHPAESTSATNESVLKVALDHGKQAGVIKSHDRVVVCQKVGDASVVKIIELED
notes: as for B2
On to B6, for which, in the series “purified protein [3]”, the Km was found to be 70 µM and the kcat was found to be 4.0 s⁻¹. For the same molecule, in “purified protein [4]”, the Km is 170 µM and the kcat is 4.0 s⁻¹.

B7: cPK2 (Arabidopsis thaliana) (protein)
chain: MAMIEQRPKTKIVCTLGPASRSVPMVEKLLRAGMNVARFNFSHGSHEYHQETLDNLHQAMLNTGILCAVMLDTKGPEIRTGFLKDGKPIQLKQGQEITISTDYDLKGDENTICMSYKKLAVDVNPGMVILCADGTISLLVLSCDKENGTVRCRCENSAMLGERKNVNLPGVVVDLPTLTEKDKEDIMQWGVPNQIDMIALSFVRKGSDLVQVRKLLGKHAKNILLMSKVENQEGVANFDDILVNSDAFMIARGDLGMEIPIEKIFLAQKVMIYKCNIQGKPVVTATQMLESMIKSPRPTRAEATDVANAVLDGTDCVMLSGETAAGAYPELAVRTMAKICVEAESTLDYGDVFKRIMLYSPVPMSPLESLASSAVRTANSARATLIMVLTRGGSTARLVAKYRPGMPILSVVVPEIKTDFFDWSCSDESPARHSLIFRGLIPVLYAGSARASHDESTEEAIEFATQYGKEKELCKTGDSVVALLRVGNASVIKILTVK
notes: full-length cDNA in pET16b, N-terminal His tag (6x in Results, 5x in Methods), E. coli BLR21, Ni-NTA; primer begins MAMIEQ
On to B7, for which, in “purified protein [3]”, the Km came out at 30 µM and the kcat was 3.05 s⁻¹. In addition, in “purified protein [4]”, the Km worked out at 760 µM and the kcat turned out to be 3.05 s⁻¹.
